Measured values reported in patent US20080299666A1, “Novel Peptide-Based Borono-Lectin (PBL) Sensors” (University of South Carolina, priority 2007, published 2008).
Values belong to the molecule of their own block, whether it stands above or below them.

What was measured:
[1] = binding with fructose at pH=8; 480 nm to 450 nm; cited from earlier work
[2] = Non-specific binding and BSA blocking: FITC-BSA and FITC-Ovalbumin on PBL library, bead fluorescence; settings: for Mean of luminosity of fluorescent beads: exposure time 832 ms; for Binding to PBL library by bead fluorescence (non-specific vs specific): exposure time 62.4 ms
Excerpt: On the other hand, we used the PBL library to bind FITC labeled bovine serum album (BSA) to observe non-specific binding. There should not be binding between them because there are no carbohydrates on BSA. The experimental results were compared in FIG. 2.14. […] That means the amount of non-specific binding is less than specific binding. In order to see whether the blocking PBL library with BSA is useful to prevent the non-specific binding, we compared the binding samples with and without blocking with BSA. Two fluorescently labeled proteins were used: FITC-BSA and FITC-Ovalbumin. In FIG. 2.14, it is not easy to differentiate the images 2 and 3 under 62.4 ms exposure time. We increased the exposure time to 832 ms and compared quantitatively the luminosity of fluorescent beads (with red circles). The mean of luminosity for image 2 is 63.57 and 38.84 for image 3; while for image 4 and 5, they are 38.63 and 19.86 respectively. […] In one experiment (Table 2.2, row 1 and 4), we counted the rate of hits which decreased when the PBLs were blocked with BSA.

[3] = Binding of control proteins to the PBL library; settings: fluorescently labeled protein
Procedure: To minimize non-specific binding, the resin was pre-incubated with 1% BSA. When binding glycoproteins to the library (about 10 min. to 12 hr—about 1 ng/mL to 1 mg/mL), 1% BSA and 10% glycerol were also included. The resin was washed extensively with phosphate buffered saline (PBS) after binding.

[4] = Detection limit of fluorescently-labeled glycoproteins bound to PBL library beads (fluorescence microscopy); format: binding
Procedure: To determine how low the concentration is at which we can still differentiate the fluorescence of the beads, the PBL library beads were blocked with 1% BSA and then incubated with varying concentration of FITC-labeled ovalbumin, PSM and CEA and CR-labeled ovalbumin and PSM with the addition of 10% (v/v) glycerol overnight. After washing away unbound glycoproteins, fluorescence images were obtained. The PBL library without addition of glycoprotein was used as a control sample. Here, the limit of glycoprotein detection is defined as the lowest concentration of fluorescently-labeled glycoproteins at which their binding to PBL library beads can give enough fluorescence intensity for visual observation. However, the concentration limits are also exposure time dependent, e.g., for FITC-Ovalbumin, and FITC-BSM, the lowest concentrations for visual observation of fluorescence under exposure time 252 ms are about 10 μg/ml, but if the exposure time was increased, the fluorescence can be observed even under dilute concentration. For instance, for FITC-Ovalbumin, the detection limit will lower to about 0.1 μg/ml when exposure time is increased to 4.69 s (FIGS. 2.15, 2.16 and Table 2.3). For FITC-CEA, if observed under 252 ms, the fluorescence of beads is strong. Its concentration limit is about 0.1 (μg/ml) under this exposure time (FIG. 2.17). Stronger fluorescence from FITC-CEA if under the same exposure time as others may be due to CEA having more terminal glycans compared to others.
For CR-glycoproteins, since the PBL library itself is lightly fluorescent under excitation wavelength=510-560 nm, in order to avoid high background interference, we chose comparatively lower exposure time (62.4 ms) when we took the images (FIGS. 2.18 and 2.19). Under this exposure time, the concentration limits for CR-Ovalbumin and CR-PSM were 1 μg/ml (Table 2.3). If we mention the concentration limit of screening, we mention exposure time because the concentration limit is exposure dependent.
FITC-glycoprotein or CR-glycoprotein solution was added into the borono-peptide beads and tumbled overnight at room temperature. The beads were then washed by PBS buffer (0.1M, pH=7.3 150 mM NaCl) (for CR-glycoproteins, beads were washed with methanol first and then washed with PBS buffer) and beads were observed under fluorescence microscope (Nikon, eclipse, E600) and pictures were taken.

[5] = PBL library response to FITC-tagged CEA at varying concentrations; format: binding
Excerpt: Higher sensitivity is achieved using longer integration times on the camera to image the beads, up to 25 ms to obtain the 10 pg/mL image.

[6] = PBL library blocked with BSA (images 3 and 5)
[7] = without BSA blocking (images 2 and 4)

Molecule: CN(C)c1ccc(/C=C/c2ccc(B(O)O)cc2)cc1 [DSTBA, 4′-Dimethylaminostilbene-4-boronic acid]
Blue shift of the emission [1]: 30 nm

Mean of luminosity of fluorescent beads [2, 6]: 38.84
Binding to PBL library by bead fluorescence (non-specific vs specific) [2]: non-specific binding is minimal
Mean of luminosity of fluorescent beads [2, 7]: 63.57
Binding to the PBL library (qualitative) [3]: no appreciable binding
Molecule: FITC-BSA: FITC labeled bovine serum albumin, not a glycoprotein [reference compound]

Mean of luminosity of fluorescent beads [2, 6]: 19.86
Binding to PBL library by bead fluorescence (non-specific vs specific) [2]: fluorescence can be observed clearly
Mean of luminosity of fluorescent beads [2, 7]: 38.63
B1: FITC-Oval: conjugate of fluorescein isothiocyanate and chicken ovalbumin (conjugate, UniProt P01012 2-386, looked up)
Ovalbumin: GSIGAASMEFCFDVFKELKVHHANENIFYCPIAIMSALAMVYLGAKDSTRTQINKVVRFDKLPGFGDSIEAQCGTSVNVHSSLRDILNQITKPNDVYSFSLASRLYAEERYPILPEYLQCVKELYRGGLEPINFQTAADQARELINSWVESQTNGIIRNVLQPSSVDSQTAMVLVNAIVFKGLWEKAFKDEDTQAMPFRVTEQESKPVQMMYQIGLFRVASMASEKMKILELPFASGTMSMLVLLPDEVSGLEQLESIINFEKLTEWTSSNVMEERKIKVYLPRMKMEEKYNLTSVLMAMGITDVFSSSANLSGISSAESLKISQAVHAAHAEINEAGREVVGSAEAGVDAASVSEEFRADHPFLFCIKHIATNAVLFFGRCVSP
modifications: FITC label
notes: conjugate of fluorescein isothiocyanate and chicken ovalbumin
Concentration limit (detection limit) ([4]; FITC label, exposure time 4.69 s): about 0.1 μg/ml
Concentration limit (detection limit) ([4]; FITC label, exposure time 252 ms, beads blocked with 1% BSA, 10% (v/v) glycerol, overnight): 10 µg/mL
Concentration limit (detection limit) ([4]; FITC label, exposure time 252 ms, beads blocked with 1% BSA, 10% (v/v) glycerol, overnight, listed as FITC-Ovalbumin): about 10 μg/ml

B2: CR-Oval: ovalbumin labeled with carboxyrhodamine (conjugate, UniProt P01012 2-386, looked up)
Ovalbumin: B1 Ovalbumin
modifications: carboxyrhodamine label
notes: ovalbumin labeled with carboxyrhodamine
Concentration limit (detection limit) ([4]; CR label, exposure time 62.4 ms, beads blocked with 1% BSA, 10% (v/v) glycerol, overnight): 1 µg/mL

B3: FITC-CEA: Carcinoembryonic antigen labeled with FITC (conjugate, UniProt P06731 35-685, looked up)
Cell adhesion molecule CEACAM5: KLTIESTPFNVAEGKEVLLLVHNLPQHLFGYSWYKGERVDGNRQIIGYVIGTQQATPGPAYSGREIIYPNASLLIQNIIQNDTGFYTLHVIKSDLVNEEATGQFRVYPELPKPSISSNNSKPVEDKDAVAFTCEPETQDATYLWWVNNQSLPVSPRLQLSNGNRTLTLFNVTRNDTASYKCETQNPVSARRSDSVILNVLYGPDAPTISPLNTSYRSGENLNLSCHAASNPPAQYSWFVNGTFQQSTQELFIPNITVNNSGSYTCQAHNSDTGLNRTTVTTITVYAEPPKPFITSNNSNPVEDEDAVALTCEPEIQNTTYLWWVNNQSLPVSPRLQLSNDNRTLTLLSVTRNDVGPYECGIQNELSVDHSDPVILNVLYGPDDPTISPSYTYYRPGVNLSLSCHAASNPPAQYSWLIDGNIQQHTQELFISNITEKNSGLYTCQANNSASGHSRTTVKTITVSAELPKPSISSNNSKPVEDKDAVAFTCEPEAQNTTYLWWVNGQSLPVSPRLQLSNGNRTLTLFNVTRNDARAYVCGIQNSVSANRSDPVTLDVLYGPDTPIISPPDSSYLSGANLNLSCHSASNPSPQYSWRINGIPQQHTQVLFIAKITPNNNGTYACFVSNLATGRNNSIVKSITVSASGTSPGLSA
modifications: FITC label
PBL library response (microscope image) ([5]; 10 pg/mL CEA, integration times up to 25 ms): responding
PBL library response (microscope image) ([5]; 10 ng/mL CEA): responding
